In FireProtDB (doi:10.1093/protein/10.5.575):

B1: Cytochrome b5, P00171 (parent)
chain: MAEESSKAVKYYTLEEIQKHNNSKSTWLILHYKVYDLTKFLEEHPGGEEVLREQAGGDATENFEDVGHSTDARELSKTFIIGELHPDDRSKITKPSESIITTIDSNPSWWTNWLIPAISALFVALIYHLYTSEN

Variants of: B1
Settings: Bos taurus, pH 7, Absorbance, phosphate 0.1 M, reversible: yes, structure 1CYO, whole UniProt chain shown

| Variant | ddG of mutation (higher = less stable) (30 °C, Urea) | denaturant midpoint (higher = more stable) (30 °C, Urea) | ddG of mutation (higher = less stable) (66.2 °C, Thermal) | unfolding enthalpy (van 't Hoff) (66.2 °C, Thermal) | Tm (Thermal) | change of melting temperature, mutant - wild type (higher = more stable) (Thermal) | unfolding enthalpy (van 't Hoff) (Thermal) |
| --- | --- | --- | --- | --- | --- | --- | --- |
| MAEESSKAVKYYTLEEIQKHNNSKSTWLILHYKVYDLTKYLEEHPGGEEVLREQAGGDATENFEDVGHSTDARELSKTFIIGELHPDDRSKITKPSESIITTIDSNPSWWTNWLIPAISALFVALIYHLYTSEN [F40Y] | -1.03 kcal/mol | 8.3 M | -0.79 kcal/mol | 86.4 kcal/mol | 69.6 °C | 3.4 °C | 86.4 kcal/mol |
| MAEESSKAVKYYTLEEIQKHNNSKSTWLILHYKVYDLTKLLEEHPGGEEVLREQAGGDATENFEDVGHSTDARELSKTFIIGELHPDDRSKITKPSESIITTIDSNPSWWTNWLIPAISALFVALIYHLYTSEN [F40L] | 1.87 kcal/mol | 4.9 M | 1.87 kcal/mol | – | 59.1 °C | -7.1 °C | 104 kcal/mol |
| MAEESSKAVKYYTLEEIQKHNNSKSTWLILHYKVYDLTKHLEEHPGGEEVLREQAGGDATENFEDVGHSTDARELSKTFIIGELHPDDRSKITKPSESIITTIDSNPSWWTNWLIPAISALFVALIYHLYTSEN [F40H] | – | – | 2.82 kcal/mol | – | 54.9 °C | -11.3 °C | 94.7 kcal/mol |
